Experimental data published in the supplement of paper PMC9170038.

Tested on: K4 kissing-loop RNA reporter
Test: apparent KD of K4 kissing-loop reporter; higher = weaker reporter binding
Conditions: Eterna round: R107; input ligand: none
Experimental: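 RNA-MaP round R107: designed RNA switches with theophylline, tryptophan, arginine or FMN aptamers are transcribed on-chip within common flanks. They are titrated with a labelled K4 kissing-loop RNA reporter in RNA-MaP buffer (100 mM Tris pH 7.5, 80 mM KCl, 4 mM MgCl2), without ligand or with the indicated ligand. Median apparent KD per design.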
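Also: bound reporter read as fluorescence of individual clusters on recovered sequencing chips by microscopy, with normalized cluster intensities fitted with a binding model.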

First: AUGGUUGUCGUAGGAUAUGUAGGAUAUUCCUAUAGCAGUGAUGUUGCUAAUAUCAAUGGAAGAAGGACAGAAGGACGAUAACCAC [KL-SSFMN-B3 #analogue #DoubleAptamer]
Second: UUUUUAAUCGCAGAUACCAGUCCAGAAUGAAUACUAUAGUGAUGUUAUAAUAAAGGGAAGGACCCUUGGCAGCUGUAAUAUAUUU [AstrosSsTheB#5]
The “apparent KD of K4 kissing-loop reporter” value of the first is 3.7-fold lower: 113 nM for the first, 416 nM for the second.

“UGAUAGGACAGAAGGAGCGGUAGUGAUGUUGCCAAAAGGGUAAGGUGUCAAAAGACACCCUGCCAGGUAGGUCGCUGUCCUAUCU” and “GAAGGAGACAACAUCACUACUCCUUCAGACUAGGAUAUCAGGAAACUGAGAAGGAGUCUACUUGCAGUGAUGUUGCAAGAAUAAU [[F]''-[K]'-[F]'-[F1]-[F2]-[K1]-[K2]_Design2]” are within 1.5-fold of each other in “apparent KD of K4 kissing-loop reporter” value: 98.5 nM for the first, 146 nM for the second.

“GCCAGUGAUGUUGGCGAACCGACGCAUGCAGAGGAUAUUCGAUCUUGAAGAAGGCUGCAGCGUCAUCAUACGCAGUGAUGUUGCG [Same State FMN A GF 27]” and “GGGUGGGUGCGAGGAUAUGGAGUGAUGUUCCAAAAGAAAAGAAGAGAAGAGAAAGAGAGAAAGAAACCAGAAGGCGCGUCCGUCC” are within 1.5-fold of each other in “apparent KD of K4 kissing-loop reporter” value: 182 nM for the first, 193 nM for the second.

Going from “AGGAUCCGUCGACAAAAGUCGACAUAAACCAAGGAUAUGACGAAAGUCAGAAGGUGGUCAUAAGACCAGUGAUGUUGGUGGAUCC [FmnA 11 #SwitchBubble #K4Late]” to “AGGUAUGUCUGAAGGAGCGACUAAGAAGCAGUGAUGUUGCUAAGUAGUAAGUAGCUACGUAGUCAGGUAGGUCGCAGAUAUACCU [Arg B SS t14]”, the “apparent KD of K4 kissing-loop reporter” value falls from 467 nM to 257 nM (1.8-fold).

For “ACCAUCAAAGAUGGCCAGGACUCCGCUGAUACCAGUGUGAAAACACUCCCUUGGCAGCAGGUGAGUGAUGUUCACAGUCCAUGGA [Omel KL Theo A SS B v3]”, the “apparent KD of K4 kissing-loop reporter” value was 150 nM.

Same assay, conditions: Eterna round: R107; input ligand: theophylline 20 uM

Compared with “GCAGUGAUGUUGCGCGGGUACGGUGGAGUGCGAGGACCGGUACGGCCGCCACUCGUACGGAACUGGCUAAUAUAUGGAUAGGUGA [VI]”, “GUUUGGCUCCGAAGACGGCAGUGGGAAAUAUAGGAUAUCUAGAAAUAGAGAAGGAUACUAGUGAUGUUAGUAUCGGAUAAAACAA” is 4.5-fold lower in “apparent KD of K4 kissing-loop reporter” value: 379 nM for the first, 83.7 nM for the second.

“UAUUGAGUGAUGUUCGAUAACCAAUCAGAUACCAGUUUUGUAGAAAACCCUUGGCAGCUGCUCAGCUCUAUAAUGCUUCGCCCUU [theeternabot_sameState_KL_Theo_A_18]” and “GCAUAGCAGACGUUGAGUGGGAGCCAGGCACGAGGACCGGUACGGCCGCCACUCGACUAGGUUUUCAGUGAUGUUGAAAAUUUAG [Exclusion Tryptophan A GF4]” are within 1.5-fold of each other in “apparent KD of K4 kissing-loop reporter” value: 184 nM for the first, 140 nM for the second.

“GCCAGAGCGCGAAGGAGCGCCGUGACAGGUUGCUGCCGUGGGCAGUGAUGUUGCUCAGUCCGGCAGGUAGGUCGCGUGCUCUGGC” and “UUGAGCCGGACCCAAGUCCGGCUCUGCGAGCGAGGACCGGUACGGCCGCCACUCGGUGCAGUGAUGUUGCAUGGCCGCAAGGCCG [#2 Exclusion - Tryptophan A Attempt #7 (HarryS)]” are within 1.5-fold of each other in “apparent KD of K4 kissing-loop reporter” value: 433 nM for the first, 372 nM for the second.

First: UGGACGAUAUACGAUAAGUAUAUCUGGGAUACCAGUGACGAAAGUCACCCUUGGCAGCUCAACUGCCAGUGAUGUUGGUAGUCCA [#17 K4 Theophylline A Same State]
Second: CGAGUGAUGUUCGUUUUUUACUCUGUUUGACAGGAUAUGCGGAAACGCAGAAGGGUCACCUUUGAGUUAGACGGAGUUAUUUUUU [Ex FMN A 21]
The “apparent KD of K4 kissing-loop reporter” value of the first is 1.7-fold lower: 182 nM for the first, 309 nM for the second.

Going from “UGUACCGAGUCAGGAUAUCAACGACUGACAAAGUCGGUCGAAUAUCCAGUGAUGUUGGAAAAUAACUGAGAAGGGACUUGGUACU [FmnBS 13 #SwitchBubble #StaticStem]” to “AUGGUUGUCGUAGGAUAUGUAGGAUAUUCCUAUAGCAGUGAUGUUGCUAAUAUCAAUGGAAGAAGGACAGAAGGACGAUAACCAC [KL-SSFMN-B3 #analogue #DoubleAptamer]”, the “apparent KD of K4 kissing-loop reporter” value falls from 710 nM to 118 nM (6-fold).

First: UUUUUAAUCGCAGAUACCAGUCCAGAAUGAAUACUAUAGUGAUGUUAUAAUAAAGGGAAGGACCCUUGGCAGCUGUAAUAUAUUU [AstrosSsTheB#5]
Second: UGAUAGGACAGAAGGAGCGGUAGUGAUGUUGCCAAAAGGGUAAGGUGUCAAAAGACACCCUGCCAGGUAGGUCGCUGUCCUAUCU
The “apparent KD of K4 kissing-loop reporter” value of the first is 3.3-fold higher: 318 nM for the first, 96.6 nM for the second.

“GAAGGAGACAACAUCACUACUCCUUCAGACUAGGAUAUCAGGAAACUGAGAAGGAGUCUACUUGCAGUGAUGUUGCAAGAAUAAU [[F]''-[K]'-[F]'-[F1]-[F2]-[K1]-[K2]_Design2]” and “GCCAGUGAUGUUGGCGAACCGACGCAUGCAGAGGAUAUUCGAUCUUGAAGAAGGCUGCAGCGUCAUCAUACGCAGUGAUGUUGCG [Same State FMN A GF 27]” are within 1.5-fold of each other in “apparent KD of K4 kissing-loop reporter” value: 148 nM for the first, 161 nM for the second.

“GGGUGGGUGCGAGGAUAUGGAGUGAUGUUCCAAAAGAAAAGAAGAGAAGAGAAAGAGAGAAAGAAACCAGAAGGCGCGUCCGUCC” and “AGGAUCCGUCGACAAAAGUCGACAUAAACCAAGGAUAUGACGAAAGUCAGAAGGUGGUCAUAAGACCAGUGAUGUUGGUGGAUCC [FmnA 11 #SwitchBubble #K4Late]” are within 1.5-fold of each other in “apparent KD of K4 kissing-loop reporter” value: 238 nM for the first, 309 nM for the second.

Going from “AGGUAUGUCUGAAGGAGCGACUAAGAAGCAGUGAUGUUGCUAAGUAGUAAGUAGCUACGUAGUCAGGUAGGUCGCAGAUAUACCU [Arg B SS t14]” to “ACCAUCAAAGAUGGCCAGGACUCCGCUGAUACCAGUGUGAAAACACUCCCUUGGCAGCAGGUGAGUGAUGUUCACAGUCCAUGGA [Omel KL Theo A SS B v3]”, the “apparent KD of K4 kissing-loop reporter” value falls from 349 nM to 146 nM (2.4-fold).

Same assay, conditions: Eterna round: R107; input ligand: tryptophan 2.4 mM

First: GCAGUGAUGUUGCGCGGGUACGGUGGAGUGCGAGGACCGGUACGGCCGCCACUCGUACGGAACUGGCUAAUAUAUGGAUAGGUGA [VI]
Second: GUUUGGCUCCGAAGACGGCAGUGGGAAAUAUAGGAUAUCUAGAAAUAGAGAAGGAUACUAGUGAUGUUAGUAUCGGAUAAAACAA
The “apparent KD of K4 kissing-loop reporter” value of the first is 4.2-fold higher: 336 nM for the first, 79.8 nM for the second.

“UAUUGAGUGAUGUUCGAUAACCAAUCAGAUACCAGUUUUGUAGAAAACCCUUGGCAGCUGCUCAGCUCUAUAAUGCUUCGCCCUU [theeternabot_sameState_KL_Theo_A_18]” and “GCAUAGCAGACGUUGAGUGGGAGCCAGGCACGAGGACCGGUACGGCCGCCACUCGACUAGGUUUUCAGUGAUGUUGAAAAUUUAG [Exclusion Tryptophan A GF4]” are within 1.5-fold of each other in “apparent KD of K4 kissing-loop reporter” value: 177 nM for the first, 156 nM for the second.

“GCCAGAGCGCGAAGGAGCGCCGUGACAGGUUGCUGCCGUGGGCAGUGAUGUUGCUCAGUCCGGCAGGUAGGUCGCGUGCUCUGGC” and “UUGAGCCGGACCCAAGUCCGGCUCUGCGAGCGAGGACCGGUACGGCCGCCACUCGGUGCAGUGAUGUUGCAUGGCCGCAAGGCCG [#2 Exclusion - Tryptophan A Attempt #7 (HarryS)]” are within 1.5-fold of each other in “apparent KD of K4 kissing-loop reporter” value: 372 nM for the first, 460 nM for the second.

Going from “UGGACGAUAUACGAUAAGUAUAUCUGGGAUACCAGUGACGAAAGUCACCCUUGGCAGCUCAACUGCCAGUGAUGUUGGUAGUCCA [#17 K4 Theophylline A Same State]” to “CGAGUGAUGUUCGUUUUUUACUCUGUUUGACAGGAUAUGCGGAAACGCAGAAGGGUCACCUUUGAGUUAGACGGAGUUAUUUUUU [Ex FMN A 21]”, the “apparent KD of K4 kissing-loop reporter” value rises from 126 nM to 290 nM (2.3-fold).

Compared with “UGUACCGAGUCAGGAUAUCAACGACUGACAAAGUCGGUCGAAUAUCCAGUGAUGUUGGAAAAUAACUGAGAAGGGACUUGGUACU [FmnBS 13 #SwitchBubble #StaticStem]”, “AUGGUUGUCGUAGGAUAUGUAGGAUAUUCCUAUAGCAGUGAUGUUGCUAAUAUCAAUGGAAGAAGGACAGAAGGACGAUAACCAC [KL-SSFMN-B3 #analogue #DoubleAptamer]” is 8-fold lower in “apparent KD of K4 kissing-loop reporter” value: 903 nM for the first, 113 nM for the second.

First: UUUUUAAUCGCAGAUACCAGUCCAGAAUGAAUACUAUAGUGAUGUUAUAAUAAAGGGAAGGACCCUUGGCAGCUGUAAUAUAUUU [AstrosSsTheB#5]
Second: UGAUAGGACAGAAGGAGCGGUAGUGAUGUUGCCAAAAGGGUAAGGUGUCAAAAGACACCCUGCCAGGUAGGUCGCUGUCCUAUCU
The “apparent KD of K4 kissing-loop reporter” value of the first is 3.6-fold higher: 298 nM for the first, 81.9 nM for the second.

“GAAGGAGACAACAUCACUACUCCUUCAGACUAGGAUAUCAGGAAACUGAGAAGGAGUCUACUUGCAGUGAUGUUGCAAGAAUAAU [[F]''-[K]'-[F]'-[F1]-[F2]-[K1]-[K2]_Design2]” and “GCCAGUGAUGUUGGCGAACCGACGCAUGCAGAGGAUAUUCGAUCUUGAAGAAGGCUGCAGCGUCAUCAUACGCAGUGAUGUUGCG [Same State FMN A GF 27]” are within 1.5-fold of each other in “apparent KD of K4 kissing-loop reporter” value: 118 nM for the first, 139 nM for the second.

Going from “GGGUGGGUGCGAGGAUAUGGAGUGAUGUUCCAAAAGAAAAGAAGAGAAGAGAAAGAGAGAAAGAAACCAGAAGGCGCGUCCGUCC” to “AGGAUCCGUCGACAAAAGUCGACAUAAACCAAGGAUAUGACGAAAGUCAGAAGGUGGUCAUAAGACCAGUGAUGUUGGUGGAUCC [FmnA 11 #SwitchBubble #K4Late]”, the “apparent KD of K4 kissing-loop reporter” value rises from 141 nM to 379 nM (2.7-fold).

“AGGUAUGUCUGAAGGAGCGACUAAGAAGCAGUGAUGUUGCUAAGUAGUAAGUAGCUACGUAGUCAGGUAGGUCGCAGAUAUACCU [Arg B SS t14]” and “ACCAUCAAAGAUGGCCAGGACUCCGCUGAUACCAGUGUGAAAACACUCCCUUGGCAGCAGGUGAGUGAUGUUCACAGUCCAUGGA [Omel KL Theo A SS B v3]” are within 1.5-fold of each other in “apparent KD of K4 kissing-loop reporter” value: 189 nM for the first, 143 nM for the second.
